The values below come from PMC3418257.

The assay has as its target glutathione-S-transferase coupled human VDR fusion protein (human) (UniProt P11473). As to the kind of experiment: pull-down; GSThVDR-Sepharose bead slurry as bait, [35S]-labelled in vitro translated RUNX2 as prey; PPI buffer (20 mM HEPES pH 7.9, 200 mM KCl, 1 mM EDTA, 4 mM MgCl2, 1 mM dithiothreitol, 0.1% Nonidet P-40, 10% glycerol), beads pre-blocked with BSA; with or without 1,25(OH)2D3; SDS-PAGE, autoradiography, densitometry.
Chain of UniProt P11473 (P11473 whole entry, the tested form may be a part): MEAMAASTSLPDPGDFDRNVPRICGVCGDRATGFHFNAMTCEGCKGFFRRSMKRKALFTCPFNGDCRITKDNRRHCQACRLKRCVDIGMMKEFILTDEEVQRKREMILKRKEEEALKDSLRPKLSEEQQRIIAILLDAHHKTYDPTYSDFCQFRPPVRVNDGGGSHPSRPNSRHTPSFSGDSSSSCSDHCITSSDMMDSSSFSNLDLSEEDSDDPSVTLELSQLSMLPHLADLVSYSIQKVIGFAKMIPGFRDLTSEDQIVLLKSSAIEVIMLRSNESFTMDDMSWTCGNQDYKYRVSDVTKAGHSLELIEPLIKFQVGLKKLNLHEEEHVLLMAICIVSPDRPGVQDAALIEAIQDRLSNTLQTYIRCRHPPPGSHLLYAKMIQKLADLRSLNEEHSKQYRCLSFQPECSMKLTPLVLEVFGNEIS

In turn, “human RUNX2 23Q wild type (natural protein)” gave a percent of label recovered in pull down of 25%.
